These results are taken from patent US20100266587A1, “Compositions and Methods to Treat Acute Myelogenous Leukemia” (BIOGEN IDEC MA INC., priority 2009, published 2010).

In test [1] the test system is fibronectin-dependent cell adhesion. The conditions noted are these: cited from earlier work.
The test system of test [2] is VLA-4 and VLA-5 adhesion to fibronectin. The conditions noted are these: cited from earlier work.
For another test, the system named is AML cell line HL60. The test is described as follows: Adhesion mediated drug resistance, HL60 cocultured with BMSC, ara-C, apoptosis. It counts as cell-based. The conditions noted are these: natalizumab combined with ara-C 10 μM, 24 hours. How it is done:
(§1) FIGS. 6A-6D are graphs showing the results of natalizumab on cell adhesion mediated drug resistance. FIG. 6A depicts the percentage of viable HL60 cells remaining after the cells were cocultured for 24 hours with (▪) or without (□) BMSC, then exposed to the chemotherapy drug AraC (cytarabine) for 24 hours. FIG. 6B depicts the percentage of apoptotic cells (Annexin V+, 7AAD) after cocultured HL60 cells were incubated with natalizumab or isotype control antibody for 4 hr., and then exposed to an effective AraC dose as determined from FIG. 6A for 24 hours. FIGS. 6C and 6D show the results of similar experiments conducted with U266 cells exposed to melphalan.
Culturing the AML cell line HL60 in the presence of BMSC conferred a protective advantage to the cells when treated with the chemotherapeutic agent ara-C, as shown in FIG. 6A. Cells were cultured for 24 hours with (▴) or without (□) BMSC, then exposed to the chemotherapy drug AraC (cytarabine) for 24 hours (FIG. 6A). Cell viability was enhanced by the presence of BMSC.

Test [3] addresses T1, VLA-4 on tumor cell lines (Homo sapiens, UniProt P13612).
T1 construct: VLA-4 expression was observed on all cell lines tested; endogenous in cells; host or cells: HL60, KG1 (AML); U266, H929 (MM); Mec1, JM1 (CLL)
The test is described as follows: Binding of natalizumab to AML, CLL and MM tumor cell lines by flow cytometry (all lines). How it is done:
FIG. 2 is a graph depicting binding of natalizumab to VLA-4 on tumor cell lines as measured by flow cytometry.
(§2) Flow cytometry experiments were performed to assess the level of VLA-4 expression on tumor cell lines, and VLA-4 expression was observed on all cell lines tested (FIG. 1).).
For orientation: In flow cytometry, cells or beads pass a laser one at a time.

The subject of another test is MM cell line U226. The test is described as follows: Adhesion mediated drug resistance, MM cells, melphalan. The test is classed as cell-based. Here is the method:
as §1

For another test, the system named is P-STAT3. The test is described as follows: Western blot of coculture-induced survival signaling. It counts as cell-based. Particulars: cells cocultured with BMSCs, 30 minutes (HL60) or 4 hr (U266). How it is done: FIG. 7 is a panel of Western blots assaying for P-STAT3, STAT3, P-JNK, JNK, P-MAPK, and MAPK levels in HL60, KG1 or U266 cells grown in suspension or cocultured with BMSCs and natalizumab, as indicated, for 30 minutes (HL60) or 4 hours (U266).
HL60, KG1 or U266 cells were grown in suspension or coculture with BMSCs and natalizumab, as indicated, for 30 minutes (HL60) or 4 hr (U266), and then the cells were separated from BMSCs, and processed for Western blot analysis to determine levels of P-STAT3, STAT3, P-JNK, JNK, P-MAPK, and MAPK (FIG. 7).
For orientation: A western blot detects proteins with antibodies after separation by electrophoresis.

The subject of test [4] is tumor cell binding to VLA-4 ligands. The test is described as follows: Maximally attainable inhibition of tumor cell binding to VLA-4 ligands at saturating antibody. The test is classed as cell-based. The conditions noted are these: saturating levels of natalizumab (20 μg/mL) vs isotype control. Here is the method: FIGS. 3A and 3B are graphs showing the effect of natalizumab on HL60 and KG1 AML tumor cell adhesion to VLA-4 ligands fibronectin (• FN), vascular adhesion molecule-1-Ig fusion protein (▪ VCAM-Ig), or bone marrow stromal cells (▴ BMSC), in the presence of natalizumab or an isotype control antibody in serial dilutions starting at 20 μg/ml. FIGS. 3C and 3D show inhibition of binding of HL60 and KG1 AML cells to VLA-4 ligands in the presence saturating levels of natalizumab (20 μg/mL) (solid bars) or isotype control (clear bars).
(§3) FIGS. 4A and 4B are graphs showing the effect of natalizumab on H929 and U266 mM tumor cell adhesion to VLA-4 ligands fibronectin (• FN), vascular adhesion molecule-1-Ig fusion protein (▪ VCAM-Ig), or bone marrow stromal cells (▴ BMSC). Adhesion was assayed in the presence of natalizumab or an isotype control antibody in serial dilutions starting at 20 μg/ml.
(§4) FIGS. 5A and 5B are graphs showing the effect of natalizumab on Mec1 and JM1 CLL tumor cell adhesion to VLA-4 ligands fibronectin (• FN), vascular adhesion molecule-1-Ig fusion protein (▪ VCAM-Ig), or bone marrow stromal cells (▴ BMSC). Adhesion was assayed in the presence of natalizumab or an isotype control antibody in serial dilutions starting at 20 μg/ml.
Experiments were conducted to test whether a VLA-4 antagonist can inhibit binding of tumor cells to a VLA-4 ligand. […]

Test [5] deals with T2, VLA-4 (alpha4beta1 integrin) on hematologic tumor cell lines (UniProt P13612 34-1032; P05556 21-798).
T2 construct: whole, on cells; also called a4β1 integrin
The test is described as follows: flow cytometry, binding to Mec1 (CLL) cells. How it is done: as §2

Test [6] concerns the target T2, VLA-4 (alpha4beta1 integrin) on …. The test is described as follows: inhibition of KG1 cell adhesion to wells coated with VCAM-Ig. Here is the method:
(§5) Experiments were conducted to test whether a VLA-4 antagonist can inhibit binding of tumor cells to a VLA-4 ligand. Cell lines were allowed to adhere to wells coated with fibronectin (• FN), vascular adhesion molecule-1-Ig fusion protein (▪ VCAM-Ig), or bone marrow stromal cells (▴ BMSC), in the presence of increasing concentrations of natalizumab or isotype control antibody.

For test [7] the target is unchanged. The test is described as follows: flow cytometry, binding to U266 (MM) cells. Here is the method: as §2
Test [8] has the same target. The test is described as follows: flow cytometry, binding to JM1 (CLL) cells. How it is done:
as §2

The target is the same in test [9]. The test is described as follows: inhibition of H929 cell adhesion to wells coated with fibronectin (FN). How it is done: as §3, §5
The target is the same in test [10]. The test is described as follows: inhibition of HL60 cell adhesion to wells coated with fibronectin (FN). Here is the method: as §5
Test [11] has the same target. The test is described as follows: flow cytometry, binding to H929 (MM) cells. Here is the method: as §2
Test [12] shares this target. The test is described as follows: cell-based or functional assay.
For test [13] the target is unchanged. The test is described as follows: inhibition of HL60 cell adhesion to wells coated with VCAM-Ig. How it is done:
as §5

For test [14] the target is unchanged. The test is described as follows: inhibition of JM1 cell adhesion to wells coated with VCAM-Ig. How it is done:
as §4, §5

Test [15] has the same target. The test is described as follows: inhibition of KG1 cell adhesion to wells coated with fibronectin (FN). Here is the method: as §5
Test [16] shares this target. The test is described as follows: flow cytometry, binding to KG1 (AML) cells. How it is done: as §2
Test [17] has the same target. The test is described as follows: inhibition of Mec1 cell adhesion to wells coated with fibronectin (FN). Here is the method:
as §4, §5

The target is the same in test [18]. The test is described as follows: flow cytometry, binding to HL60 (AML) cells. Here is the method: as §2
The target is the same in test [19]. The test is described as follows: inhibition of JM1 cell adhesion to wells coated with fibronectin (FN). How it is done: as §4, §5
The target is the same in test [20]. The test is described as follows: inhibition of Mec1 cell adhesion to wells coated with VCAM-Ig. Here is the method:
as §4, §5

For test [21] the target is unchanged. The test is described as follows: inhibition of U266 cell adhesion to wells coated with VCAM-Ig. How it is done:
as §3, §5

For test [22] the target is unchanged. The test is described as follows: inhibition of U266 cell adhesion to wells coated with fibronectin (FN). Here is the method: as §3, §5
Test [23] shares this target. The test is described as follows: inhibition of H929 cell adhesion to wells coated with VCAM-Ig. How it is done: as §3, §5

For “Glu-Ile-Leu-Asp-Val (EILDV; printed: Glu-Ile-Leu-Asp-Val) [pentapeptide from the CS-1 region of fibronectin]”, the “Inhibitory activity against fibronectin-dependent cell adhesion” value (shortened to “Inhibitory activity”) in test [1] is reported as “possessed inhibitory activity”.
Regarding “Leu-Asp-Val-Pro-Ser (LDVPS; printed: Leu-Asp-Val-Pro-Ser) [pentapeptide from the CS-1 region of fibronectin]”, the “Inhibitory activity” value in [1] is recorded as “possessed inhibitory activity”.
With Glu-Ile-Leu-Asp-Val-Pro-Ser-Thr, in test [1], the “Inhibitory activity” value is recorded as “possessed inhibitory activity”.
Turning to Arg-Cys-Asp-TPro-Cys, the “Inhibition of VLA-4 and VLA-5 adhesion to fibronectin” value in test [2] is “can inhibit both VLA-4 and VLA-5 adhesion to fibronectin”.
Natalizumab: the “Percentage of cells undergoing apoptosis” value with AML cell line HL60 is on record as “increase in the percentage of cells undergoing apoptosis”. Also, the “Binding to AML, CLL and MM tumor cell lines” value in test [3] was “saturable binding was observed”. Besides, the “Effect on cell adhesion mediated resistance to melphalan” value with MM cell line U226 is “did not have a cytoprotective effect”. Moreover, the “Coculture-induced survival signaling through P-STAT3” value in the test on P-STAT3 is listed as “can be inhibited”. In addition, the “Inhibition of tumor cell binding to VLA-4 ligands at saturating levels” value in test [4] was “inhibit binding in all cell types assayed”.

B1: natalizumab (antibody, human IgG4, kappa, V domains shown)
VH: QVQLVQSGAEVKKPGASVKVSCKASGFNIKDTYIHWVRQAPGQRLEWMGRIDPANGYTKYDPKFQGRVTITADTSASTAYMELSSLRSEDTAVYYCAREGYYGNYGVYAMDYWGQGTLVTVSS
VL: DIQMTQSPSSLSASVGDRVTITCKTSQDINKYMAWYQQTPGKAPRLLIHYTSALQPGIPSRFSGSGSGRDYTFTISSLQPEDIATYYCLQYDNLWTFGQGTKVEIKR
modifications: Glutamine 1 cyclized to pyroGlutamic Acid; C-terminal Lysine is removed posttranslationally
notes: Humanized version of murine monoclonal antibody 21.6; also called AN100226; TYSABRI
As for B1, the EC50 (as a rule, the concentration giving half of the maximal effect) in test [5] came to 0.11 nM; in [7], 0.3 nM; in [8], 0.28 nM; in test [11] it was 0.8 nM; in test [16], 0.22 nM; in test [18] it was 0.19 nM. Further, the IC50 (in general, the concentration that inhibits the measured activity by half) is 0.19 nM in [6]; 0.4 nM in [9]; 0.5 nM in test [10]; 0.92 nM in test [13]; 0.19 nM in test [14]; 0.1 nM in test [15]. In addition, the IC50 in test [17] is 0.39 nM; in test [19] it was 11.6 nM; in test [20], 0.22 nM; in test [21], 0.26 nM; in test [22], 0.4 nM; in test [23], 0.45 nM. The “IC50 (nM) of inhibition of H929 (MM) cell adhesion to bone marrow stromal cells (BMSC)” value in test [12] is 1.74 nM. In addition, in test [12], the “IC50 (nM) of inhibition of HL60 (AML) cell adhesion to bone marrow stromal cells (BMSC)” value turned out to be 13.7 nM. Further, the “IC50 (nM) of inhibition of U266 (MM) cell adhesion to bone marrow stromal cells (BMSC)” value in [12] came to 0.53 nM.
